Data published in the supplement of paper PMC11865577.

Key:
Assay in all cases: pull-down binding Z-score (relative to library population); higher = stronger binding
[1] = system: G-clamp-N3 (biotin conjugate); conditions: RNA library: Library-1 (pre-miRNA loops + repeats)
Procedure, shortened: (§1)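 Streptavidin beads bearing 100 pmol of a biotin-conjugated small molecule were incubated for 60 min at 25 °C with 1 μg of heat-folded, Cy5- or Cy3-end-labelled RNA library in phosphate/NaCl/KCl buffer. Hot SDS eluted the RNA that stayed bound after three washes, and this RNA was hybridised for 20 h at 55.5 °C to a DNA barcode microarray. Binding was expressed as a Z-score against the library mean and standard deviation, after subtraction of a beads-only signal and trimmed averaging of barcoded replicate probes.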

[2] = system: TO-N3-2 (biotin conjugate); conditions: RNA library: Library-2
Procedure, shortened: as §1

[3] = system: TO-N3 (biotin conjugate); conditions: RNA library: Library-2
Procedure, shortened: as §1

[4] = system: TO-3-N3 (biotin conjugate); conditions: RNA library: Library-2
Procedure, shortened: as §1

[5] = system: TO-3-N3-2 (biotin conjugate); conditions: RNA library: Library-2
Procedure, shortened: as §1

| Sequence | pull-down binding Z-score [1] | pull-down binding Z-score [2] | pull-down binding Z-score [3] | pull-down binding Z-score [4] | pull-down binding Z-score [5] |
| --- | --- | --- | --- | --- | --- |
| GUGGAGCCAAAAUUAGAAGGGCCAAAAUUCUACCUGGCCCACUACCACAG [hsa-mir-3978] | -0.932 | 0.705 | -0.00817 | -0.3 | 0.318 |
| GUGGAGGGUGGUGCCGCCGGGGCCGGGCGCUGUUUCAGCUCGCUUCUCCCCCCAC [hsa-mir-1224] | 0.608 | 2.36 | 2.71 | 2.06 | 1.31 |
| GUGGAGGUAGGCGAGAGUAAUAUAAUUUCUCCAGGAGAACAUCUGAGAGGGGAAGUUGCUUUCCUGCCCUGGCCCUUUCAC [hsa-mir-6076] | -0.319 | 1.37 | 0.735 | 0.431 | 0.000368 |
| GUGGAGUCGGGUCAGACUUCAA [hsa-mir-378c] | -1.13 | 0.384 | -0.0868 | -0.461 | -0.477 |
| GUGGCCUUGGACAAGCCUCUUGGUUAC [hsa-mir-4672] | -0.419 | 0.885 | -0.141 | -0.457 | -0.502 |
| GUGGCUAAUCAGCUGAUGGUGCCAC [hsa-mir-4715] | -0.109 | -0.545 | -0.26 | -0.0716 | -0.511 |
| GUGGCUUCAACCAAGUUCAAAGUCAC [hsa-mir-3186] | -1.08 | -0.383 | -0.441 | -0.304 | -0.378 |
| GUGGCUUGUGGCUGAGUGUCACGCUGC [hsa-mir-6068] | 0.217 | 0.225 | -0.254 | -0.567 | -0.233 |
| GUGGGUCAAGUUUAGAGAUGCACCAAC [hsa-mir-490] | 0.572 | 1.5 | 1.43 | 1.32 | 0.519 |
| GUGGGUUGUGAGGACUGAGGCCAGACCCAC [hsa-mir-181d] | 1.5 | 0.803 | -0.139 | -0.504 | -0.244 |
| GUGGUGGGCACUGCUGGGGUGGGCACAGCAGCCAUGCAGAGCGGGCAUUUGACCCCGUGCCACCCUUUUCCCCAG [hsa-mir-1227] | 0.221 | 2.64 | 3.14 | 2.64 | 1.89 |
| GUGGUUUCAGGGCAGUGAUGUUGCCCCUCGGAAGAUAACUAU [hsa-let-7b] | 0.231 | 0.235 | -0.128 | -0.324 | -0.113 |
| GUGUACAGGGAGGAGACUGUACGUGAGAGAUAGUCAGAUCCGCAUGUUAGAGCAGAGUCUCCUUCGUGUACAG [hsa-mir-4441] | 0.459 | 0.631 | -0.184 | -0.779 | -0.183 |
| GUGUACCUCAUGUGUGUACAC [hsa-mir-5692a-2_5692a-1] | -0.853 | 0.335 | -0.563 | -0.584 | -0.344 |
| GUGUAGAGGCGGAGCACAG [hsa-mir-1471] | 0.507 | 1.46 | 0.847 | 0.151 | 0.381 |
| GUGUAGGGGUGGCUACAC [hsa-mir-4717] | 0.957 | 0.235 | 0.346 | 0.385 | 0.281 |
| GUGUAUGGGCUGAGCCUUGC [hsa-mir-6805] | 0.279 | 0.868 | 0.44 | -0.021 | 0.0312 |
| GUGUCCUGAAAUUCACAGGACUG [hsa-mir-4700] | 1.38 | 0.643 | 0.923 | 0.856 | 0.237 |
| GUGUCCUUUCUUCUGAGAGCUGGACAC [hsa-mir-6500] | 0.00177 | -0.336 | -0.527 | -0.375 | -0.39 |

| Sequence | pull-down binding Z-score [1] | pull-down binding Z-score [2] | pull-down binding Z-score [3] | pull-down binding Z-score [4] | pull-down binding Z-score [5] |
| --- | --- | --- | --- | --- | --- |
| GUGUCGCCCCACGAGGGGGACUGU [hsa-mir-4322] | -0.152 | 0.483 | 0.327 | -0.00462 | -0.362 |
| GUGUCUGGAGACGCCAGGCAGC [hsa-mir-4323] | -0.529 | 1.13 | 0.127 | -0.154 | -0.352 |
| GUGUCUGGCCCCAGCAGCCCAGACU [hsa-mir-6751] | -0.568 | 1.39 | 0.766 | 0.258 | -0.171 |
| GUGUGGAGAGAGCACUGAGCCUGCCCACC [hsa-mir-6849] | -0.498 | 1.45 | 0.55 | -0.134 | -0.152 |
| GUGUGUGGCGUGGGUGCUGCGGGGCCGUCAGGGUGCCUGCGGGACGCUCAC [hsa-mir-6765] | 1.58 | 1.73 | 1.13 | 0.665 | 0.334 |
| GUGUGUUACCUAGAAAUAGCACU [hsa-mir-378a] | -1.11 | -0.118 | -0.282 | -0.283 | -0.165 |
| GUGUUCACACAUAAUGUGUACACCAUGUGUGUACAC [hsa-mir-5692b] | -0.31 | -0.606 | 0.022 | 0.192 | -0.272 |
| GUGUUGGGUAUAAGUAACA [hsa-mir-1270] | -0.877 | 0.457 | 0.257 | -0.205 | 0.157 |
| GUGUUUAUUUUUUACUAAAUAG [hsa-mir-4766] | -0.918 | -0.723 | -0.451 | -0.515 | 0.102 |
| GUGUUUGUGACAUAAUUUGU [hsa-mir-325] | -1.02 | -0.231 | 0.0205 | 0.174 | 0.252 |
| GUGUUUUCUCCUUUAGAGAGAGCUG [hsa-mir-4299] | 0.765 | 0.309 | -0.257 | -0.542 | -0.23 |
| GUUACUAAUCUAACUAAUUGUAAC [hsa-mir-582] | 1.11 | -0.722 | 0.00217 | 0.0863 | 0.0952 |
| GUUACUGUGGGAACUGGAGGUAAC [hsa-mir-132] | 2.34 | 0.708 | 1.1 | 0.839 | 0.489 |
| GUUAGACCUGGCCCUCUGUCUAAU [hsa-mir-429] | -0.787 | 0.3 | 0.564 | 0.355 | -0.136 |
| GUUAGUUGUGGACACAUACUAAC [hsa-mir-3912] | -0.0574 | -1.25 | -1.19 | -0.764 | -0.735 |
| GUUCAGAGUCUGUUUUUGUCUAGC [hsa-mir-29c] | -0.124 | -0.0332 | -0.313 | -0.508 | 0.0089 |
| GUUCCUGUGAUUUUUC [hsa-mir-198] | -0.819 | -0.289 | -0.29 | -0.267 | -0.212 |
| GUUCGCUUAAUUUAUGACGAAUC [hsa-mir-487a] | 0.269 | -0.483 | -0.395 | -0.221 | -0.215 |
